Positions count from the first letter of the chain named. One block for each binder: values may come before it.
What was measured:
[1] = biological target: T1, CD96 epitope peptide #1 (17-36) (human); assay: peptide ELISA ('-' indicates no binding, table note)
T1 peptide: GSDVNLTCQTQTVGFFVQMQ
Method: (§1) The epitopes recognized by anti-CD96 antibody were detected by the assay of binding the antibody to different polypeptide fragments of CD96 protein. The fragments of different polypeptides of the CD96 antigen were coated on the microtiter plate. The signal density after the antibody was added was used to judge the binding activity of the antibody and the polypeptide. The specific experimental method is as follows:
(§2) The polypeptides were diluted to a concentration of 20 μg/ml with PBS buffer (Shanghai Yuanpei Biotechnology Co., Ltd. Cat No. B320), pH 7.4, added to a 96-well microtiter plate (Corning, Cat No. CLS3590-100EA) at a volume of 50 μl/well, and coated at 4° C. overnight. After discarding the liquid, 250 μl/well of 5% skim milk (BD skim milk, Cat No. 232100) blocking solution diluted with PBS was added, and the plate was incubated in an incubator at 37° C. for 3 hours. After blocking, the blocking solution was discarded, and the plate was washed 5 times with PBST buffer (pH 7.4 PBS containing 0.05% tween-20). 50 μl/well of different concentrations of the antibodies to be tested (hybridoma purification antibody or humanized antibody) diluted with sample dilution was added, and the plate was incubated in an incubator at 37° C. for 2 hours. […] After washing the plate 5 times with PBST, 50 μl/well of TMB chromogenic substrate (KPL, Cat No. 52-00-03) was added, the plate was incubated at room temperature for 5-15 min, followed by adding 50 μl/well of 1M H₂SO₄ to stop the reaction. The absorption value was read at 450 nm with a microplate reader (Thermo Scientific MuLtiskan MK3), and the epitopes that CD96 antibody can recognize were analyzed.

[2] = biological target: T2, CD96 epitope peptide #16 (235-254) (human); assay: as above
T2 peptide: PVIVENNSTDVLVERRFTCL
Method: as §1, §2

[3] = biological target: T3, CD96 epitope peptide #7 (107-126) (human); assay: as above
T3 peptide: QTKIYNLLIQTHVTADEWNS
Method: as §1, §2

[4] = biological target: T4, CD96 epitope peptide #8 (122-141) (human); assay: as above
T4 peptide: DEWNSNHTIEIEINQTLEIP
Method: as §1, §2

[5] = biological target: T5, CD96 epitope peptide #11 (166-185) (human); assay: as above
T5 peptide: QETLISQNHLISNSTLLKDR
Method: as §1, §2

[6] = biological target: T6, CD96 epitope peptide #12 (181-200) (human); assay: as above
T6 peptide: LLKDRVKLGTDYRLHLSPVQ
Method: as §1, §2

[7] = biological target: T7, CD96 epitope peptide #5 (77-86) (human); assay: as above
T7 peptide: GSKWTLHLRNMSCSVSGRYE
Method: as §1, §2

[8] = biological target: T8, CD96 epitope peptide #22 (325-344) (human); assay: as above
T8 peptide: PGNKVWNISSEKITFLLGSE
Method: as §1, §2

[9] = biological target: T9, CD96 epitope peptide #20 (295-314) (human); assay: as above
T9 peptide: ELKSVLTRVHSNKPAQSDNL
Method: as §1, §2

[10] = biological target: T10, CD96 epitope peptide #2 (32-51) (human); assay: as above
T10 peptide: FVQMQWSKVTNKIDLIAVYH
Method: as §1, §2

[11] = biological target: T11, CD96 epitope peptide #15 (220-239) (human); assay: as above
T11 peptide: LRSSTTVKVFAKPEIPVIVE
Method: as §1, §2

[12] = biological target: T12, CD96 epitope peptide #14 (211-230) (human); assay: as above
T12 peptide: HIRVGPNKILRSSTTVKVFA
Method: as §1, §2

[13] = biological target: T13, CD96 epitope peptide #17 (250-269) (human); assay: as above
T13 peptide: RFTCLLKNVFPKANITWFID
Method: as §1, §2

[14] = biological target: T14, CD96 epitope peptide #13 (196-215) (human); assay: as above
T14 peptide: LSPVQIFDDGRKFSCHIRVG
Method: as §1, §2

[15] = biological target: T15, CD96 epitope peptide #6 (92-111) (human); assay: as above
T15 peptide: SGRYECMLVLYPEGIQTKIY
Method: as §1, §2

[16] = biological target: T1, CD96 epitope peptide #1 (17-36); assay: peptide ELISA, peptide coated
Method: as §1, §2

[17] = biological target: T7, CD96 epitope peptide #5 (77-86 as …); assay: peptide ELISA, peptide coated
Method: as §1, §2

[18] = biological target: T12, CD96 epitope peptide #14 (211-230); assay: peptide ELISA, peptide coated
Method: as §1, §2

[19] = biological target: T13, CD96 epitope peptide #17 (250-269); assay: peptide ELISA, peptide coated
Method: as §1, §2

B3: ch1719 (antibody, human IgG4 S228P, kappa, V domains shown)
VH: QVQLKESGPGLVAPSQSLSITCTVSGFSLISYGVSWVRQPPGKGLEWLGVIWGDGNTNYHSVLISRLSIRKDDSKSQVFLKLNSLQTDDTATYYCAKNNYYGSRYGYPMDYWGQGTSVTVSS
VL: DIVMTQSHKFMSTSVGDRVSITCKATQDVGTAVAWYQQKPGHSPKLLIYWASTRHTGVPERFTGSGSGTDFTLTIDNVQSEDLADYFCQQYGSSVLTFGAGTKVELRR
notes: also called chimeric antibody corresponding to m1719
binding result [1]: no binding
binding result [2]: no binding
binding result [3]: no binding
binding result [4]: no binding
binding result [5]: no binding
binding result [6]: no binding
binding result [7]: no binding
binding result [8]: no binding
binding result [9]: no binding
binding result [10]: no binding
binding result [11]: no binding
binding result [12]: no binding
binding result [13]: no binding
binding result [14]: no binding
binding result [15]: no binding

B4: ch1721 (antibody, human IgG4 S228P, kappa, V domains shown)
VH: B3 VH with S35N, N56S, V62A, R70S, K81N, N99Y, Y100F, P108A, Y111S, T116I
VL: DIQMTQSPASLSAAVGETVTITCRASENIYSSLAWYQQKQGKSPQLLVYNAKTLIETVASRFSGSGSGTQYSLKINSLQPEDFGSFYCQHHYGTPYTFGGGTKLEIKR
notes: also called chimeric antibody corresponding to m1721
binding result [16]: binds
binding result [17]: binds
binding result [18]: binds
binding result [19]: binds

Continued, values first:

binding result [1]: no binding
binding result [2]: no binding
binding result [3]: no binding
binding result [4]: no binding
binding result [5]: no binding
binding result [6]: no binding
binding result [7]: no binding
binding result [8]: no binding
binding result [9]: no binding
binding result [10]: no binding
binding result [11]: no binding
binding result [12]: no binding
binding result [13]: no binding
binding result [14]: no binding
binding result [15]: no binding
B1: ch1720 (antibody, human IgG4 S228P, kappa, V domains shown)
VH: EFQLQQSGPELVKPGASVKISCKASAYSLTDYNMNWVKQSNGKSLEWIGVINPSYGISSYNQKFKGKATLTVDQSSSTAYMHLNSLTSEDSAVYYCARQLRLPGYFDVWGTGTTVTVSS
VL: DIKMTQSPSSKNASLGERVTITCKASQDINSYLNWFQQKPGKSPKTLIYRASRLVDGVPSRFSGSGSGQDYSLTISSLEYEDMGIYYCLKYDEFPYTFGGGTKLEIKR
notes: also called chimeric antibody corresponding to m1720

binding result [16]: binds
binding result [17]: binds
binding result [18]: binds
binding result [19]: binds
B2: ch1718 (antibody, human IgG4 S228P, kappa, V domains shown)
VH: B1 VH with L29I, S58T, S59D, K63N, G66D, H82Q, R98I, T116I
VL: B1 VL with K11M, N12Y, S31N, S52N, L104V
notes: also called chimeric antibody corresponding to m1718
